The term EC50 denotes the concentration that produces a half-maximal response. For orientation: Kd means the constant that tells how readily two partners part at equilibrium.

Experiment [1] has as its target T1, biotinylated Tim3-ECD-AviHis (human, UniProt Q8TDQ0 22-202, biotinylated (Avi tag)).
T1 construct: extracellular domain; also called huTIM3; hu Tim3; not shown: Avi and His tags
Briefly: ELISA, biotinylated Tim3-ECD-AviHis on streptavidin plates. (In an ELISA, binding on a coated surface is turned into a signal by an enzyme label.)

In experiment [2] the target is T2, human Tim3-ECD (human, UniProt Q8TDQ0 22-202).
T2 construct: extracellular domain; Analyte of the Biacore assay; also called hu Tim3-ECD
In words: SPR (Biacore T200), antibody captured via anti-human Fab IgG, human Tim3-ECD in solution, 1:1 Langmuir. In general terms: Surface plasmon resonance follows binding to a sensor surface in real time, without labels.
Description: (§1) The sample and running buffer was HBS-EP+ (0.01 M HEPES, 0.15 M NaCl, 3 mM EDTA, 0.05% v/v Surfactant P20, pH 7.4). Flow cell temperature was set to 25° C. and sample compartment temperature to 12° C. The system was primed with running buffer.
(§2) Different samples were injected for 30 seconds with a concentration of 10 nM and bound consecutively to the flow cells 2, 3 and 4. […] Finally the double referenced data was fitted to a 1:1 langmuir interaction model with the Biacore™ T200 Evaluation Software.

The target of the next experiment is T3, human PD1-ECD (human, UniProt Q15116 25-170).
T3 construct: extracellular domain; Analyte of the Biacore assay; also called hu PD1-ECD
In words: SPR (Biacore T200), antibody captured via anti-human Fc IgG, human PD1-ECD in solution, 1:1 Langmuir.

Experiment [3] concerns the target T4, biotinylated PD1-ECD-AviHis (human, UniProt Q15116 25-170, biotinylated (Avi tag)).
T4 construct: extracellular domain; also called huPD1; hu PD1; not shown: Avi and His tags
Briefly: ELISA, biotinylated PD1-ECD-AviHis on streptavidin plates.

For experiment [4], the target named is T2, human Tim3-ECD. Briefly: SPR (Biacore T200), antibody captured via anti-human Fab IgG, human Tim3-ECD in solution, 1:1 Langmuir; 2 + 2 bispecific format, Tim3-arm.
Description: as §1, §2
Experiment [5] has as its target T1, biotinylated Tim3-ECD-AviHis. In words: ELISA on biotinylated Tim3-ECD-AviHis.

Description for human PD1-ECD: Different samples were injected for 15 seconds with a concentration of 10 nM and consecutively bound to the flow cells 2, 3 and 4. […] Finally the double referenced data was fitted to a 1:1 langmuir interaction model with the Biacore™ T200 Evaluation Software.

B1: 2 + 2 PD1TIM3_0359: chimeric PD1-0103/Tim3-0018 (bispecific antibody, human IgG1, kappa, L234A L235A)
heavy: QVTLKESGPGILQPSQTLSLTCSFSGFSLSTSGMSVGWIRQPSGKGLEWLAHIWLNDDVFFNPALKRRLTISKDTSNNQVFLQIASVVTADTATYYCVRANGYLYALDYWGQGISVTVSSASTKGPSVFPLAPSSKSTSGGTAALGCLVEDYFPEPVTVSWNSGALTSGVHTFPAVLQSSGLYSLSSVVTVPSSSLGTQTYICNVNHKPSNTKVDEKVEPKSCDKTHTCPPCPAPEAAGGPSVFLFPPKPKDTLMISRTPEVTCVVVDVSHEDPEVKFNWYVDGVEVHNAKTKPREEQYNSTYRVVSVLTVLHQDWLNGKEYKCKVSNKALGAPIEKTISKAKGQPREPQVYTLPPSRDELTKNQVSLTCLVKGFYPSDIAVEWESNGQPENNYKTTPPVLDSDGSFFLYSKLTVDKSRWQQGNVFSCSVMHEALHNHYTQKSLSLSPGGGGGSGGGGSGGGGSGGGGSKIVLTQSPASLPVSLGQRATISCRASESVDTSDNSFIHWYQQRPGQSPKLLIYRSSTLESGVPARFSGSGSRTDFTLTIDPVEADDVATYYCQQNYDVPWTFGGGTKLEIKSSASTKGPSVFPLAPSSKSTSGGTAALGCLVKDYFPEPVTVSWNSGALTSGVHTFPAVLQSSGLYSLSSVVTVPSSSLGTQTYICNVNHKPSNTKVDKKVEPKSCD
light 1: QIVLTQSPAIMSASPGQKVTITCSASSSVNYTQWYQQKLGSSPKLWIYDAFKLAPGVPARFSGSGTGTSYSLTISSMEAEDAASYFCHQWSSYPWTFGGGTKLEIKRTVAAPSVFIFPPSDRKLKSGTASVVCLLNNFYPREAKVQWKVDNALQSGNSQESVTEQDSKDSTYSLSSTLTLSKADYEKHKVYACEVTHQGLSSPVTKSFNRGEC
light 2: EVILVESGGGLVKPGGSLKLSCAASGFSFSSYTMSWVRQTPEKRLDWVATISGGGRDIYYPDSVKGRFTISRDNAKNTLYLEMSSLMSEDTALYYCVLLTGRVYFALDSWGQGTSVTVSSASVAAPSVFIFPPSDEQLKSGTASVVCLLNNFYPREAKVQWKVDNALQSGNSQESVTEQDSKDSTYSLSSTLTLSKADYEKHKVYACEVTHQGLSSPVTKSFNRGEC
notes: Tetravalent 2+2 CrossMAb VH-VL with charged substitutions in the CH1/CL interfaces; also called PD1TIM3-0359 (2 + 2)
As to B1, the concentration giving a half-maximal response (EC50) in experiment [1] turned out to be 0.11 nM; in experiment [3], 0.09 nM. Besides, the dissociation constant Kd in the experiment with human Tim3-ECD [2] turned out to be 0.3 nM; in the experiment with human PD1-ECD it was 1.9 nM.

B2: 2 + 2 PD1TIM3_0358: chimeric PD1-0103/Tim3-0028 (bispecific antibody, human IgG1, kappa, L234A L235A)
heavy: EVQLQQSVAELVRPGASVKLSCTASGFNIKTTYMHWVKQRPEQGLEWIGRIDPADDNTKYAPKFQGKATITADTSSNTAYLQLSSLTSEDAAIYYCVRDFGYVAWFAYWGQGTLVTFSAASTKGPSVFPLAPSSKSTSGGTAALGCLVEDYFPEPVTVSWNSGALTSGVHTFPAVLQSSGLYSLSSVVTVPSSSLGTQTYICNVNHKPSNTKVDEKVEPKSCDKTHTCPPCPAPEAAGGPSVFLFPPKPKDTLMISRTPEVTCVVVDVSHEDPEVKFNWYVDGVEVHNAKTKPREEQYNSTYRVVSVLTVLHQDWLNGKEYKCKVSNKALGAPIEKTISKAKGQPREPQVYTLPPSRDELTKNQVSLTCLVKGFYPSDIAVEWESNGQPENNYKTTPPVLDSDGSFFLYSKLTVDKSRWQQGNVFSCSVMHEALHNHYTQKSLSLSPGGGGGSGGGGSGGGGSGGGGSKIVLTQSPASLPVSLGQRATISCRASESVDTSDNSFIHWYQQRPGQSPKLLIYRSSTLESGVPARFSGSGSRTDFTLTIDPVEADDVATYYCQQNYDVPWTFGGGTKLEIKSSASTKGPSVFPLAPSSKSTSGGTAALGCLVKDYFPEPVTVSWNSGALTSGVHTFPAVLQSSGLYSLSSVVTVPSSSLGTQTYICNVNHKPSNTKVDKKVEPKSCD
light 1: NIVMTPTPKFLPVSSGDRVTMTCRASQSVDNYVAWYQQKPGQSPKLLIYYASNRYIGVPDRFTGSGSGTDFTFTISSVQVEDLAVYFCQQHYSSPYTFGSGTKLEIKRTVAAPSVFIFPPSDRKLKSGTASVVCLLNNFYPREAKVQWKVDNALQSGNSQESVTEQDSKDSTYSLSSTLTLSKADYEKHKVYACEVTHQG
light 2: B1 light 2
notes: Tetravalent 2+2 CrossMAb VH-VL with charged substitutions in the CH1/CL interfaces; also called PD1TIM3-0358 (2 + 2)
With B2, the dissociation constant Kd in the experiment with human Tim3-ECD [4] was found to be 2.2 nM. Moreover, the EC50 in experiment [1] is 0.19 nM; in experiment [3], 0.08 nM.

B3: Chimeric PD1-0103 (antibody, V domains shown)
VH: EVILVESGGGLVKPGGSLKLSCAASGFSFSSYTMSWVRQTPEKRLDWVATISGGGRDIYYPDSVKGRFTISRDNAKNTLYLEMSSLMSEDTALYYCVLLTGRVYFALDSWGQGTSVTVSS
VL: KIVLTQSPASLPVSLGQRATISCRASESVDTSDNSFIHWYQQRPGQSPKLLIYRSSTLESGVPARFSGSGSRTDFTLTIDPVEADDVATYYCQQNYDVPWTFGGGTKLEIK
notes: Bivalent IgG; also called PD1 IgG (bivalent); copies: 2 + 2
Consider B3, for which the binding result in experiment [5] was “no binding”. The EC50 in experiment [3] came out at 0.12 nM.
